Earlier results on two substances are cited in article PMC9445421.

Where two headings read alike, the source gives them in different places.

Broadly, the Kd is the constant that tells how readily two partners part at equilibrium.

Data set [1] deals with TrkB (Homo sapiens) (UniProt Q16620).
The target is the same in data set [2]. The source holds these as a separate data set.

Chain of UniProt Q16620 (Q16620 32-430): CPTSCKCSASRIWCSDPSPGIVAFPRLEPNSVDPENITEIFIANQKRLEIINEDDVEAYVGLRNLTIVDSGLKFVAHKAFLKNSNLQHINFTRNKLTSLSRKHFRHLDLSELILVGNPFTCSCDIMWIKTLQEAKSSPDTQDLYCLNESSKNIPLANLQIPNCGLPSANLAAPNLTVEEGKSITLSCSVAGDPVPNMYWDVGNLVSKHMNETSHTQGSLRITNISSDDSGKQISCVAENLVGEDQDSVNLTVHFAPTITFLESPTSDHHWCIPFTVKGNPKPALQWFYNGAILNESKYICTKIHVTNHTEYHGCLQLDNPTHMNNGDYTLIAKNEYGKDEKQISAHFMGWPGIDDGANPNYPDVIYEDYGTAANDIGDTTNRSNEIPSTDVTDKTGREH

With BDNF (from UniProt P23560), the dissociation constant (Kd) in data set [1] is 0.79 nM. Take NT4 (from UniProt P34130): in data set [2], the Kd was 0.26 nM.
